Common to all, as to assay: cell_activity
In data set [1] the test system is zebrafish atp8 reverse mitoTALE-nickase (synthetic (Xanthomonas TALE-FokI)?). To be noted: nd5+atp8 nickases, >90% with nd4 nuclease.
The subject of data set [2] is zebrafish nd4 reverse mitoTALE nuclease (synthetic (Xanthomonas TALE-FokI)?). As to conditions: co-injected with nd5 and atp8 nickases; heteroplasmic shift to about 2-10%.
Data set [3] deals with zebrafish nd5 reverse mitoTALE-nickase (synthetic (Xanthomonas TALE-FokI)?). As to conditions: nd5+atp8 nickases, >90% with nd4 nuclease.
For data set [4], the system named is zebrafish atp8 forward mitoTALE-nickase (synthetic (Xanthomonas TALE-FokI)?). To be noted: nd5+atp8 nickases, >90% with nd4 nuclease.
Data set [5] has as its system zebrafish nd4 reverse mitoTALE-nickase-1 (synthetic (Xanthomonas TALE-FokI)?). To be noted: nd4 nickase-1 + nickase-2, zebrafish embryos.
The test system of data set [6] is zebrafish nd4 forward mitoTALE-nickase-2 (synthetic (Xanthomonas TALE-FokI)?). As to conditions: nd4 nickase-1 + nickase-2, zebrafish embryos.
Data set [7] relates to zebrafish nd4 forward mitoTALE-nickase-1 (synthetic (Xanthomonas TALE-FokI)?). To be noted: nd4 nickase-1 + nickase-2, zebrafish embryos.
Data set [8] deals with zebrafish nd5 forward mitoTALE-nickase (synthetic (Xanthomonas TALE-FokI)?). As to conditions: nd5+atp8 nickases, >90% with nd4 nuclease.
Data set [9] deals with zebrafish nd4 forward mitoTALE nuclease (synthetic (Xanthomonas TALE-FokI)?). As to conditions: co-injected with nd5 and atp8 nickases; heteroplasmic shift to about 2-10%.
The subject of data set [10] is zebrafish nd4 reverse mitoTALE-nickase-2 (synthetic (Xanthomonas TALE-FokI)?). As to conditions: nd4 nickase-1 + nickase-2, zebrafish embryos.

The sequence “TAGGTTGAATGTGAT (double strand) [zebrafish atp8 reverse half-site]” came in with an activity (% embryos with deletion) in data set [1] of 30.

“CGGGTAATAATGATT (double strand) [zebrafish nd4 nuclease reverse half-site]”: the activity (% embryos with deletion) in [2] was greater than 90.

With “GCTAGATGTGGTTGG (double strand) [zebrafish nd5 reverse half-site]”, the activity (% embryos with deletion) in data set [3] was found to be 30.

In [4], “TCCTTACTATTATTC (double strand) [zebrafish atp8 forward half-site]” had an activity (% embryos with deletion) of 30.

For “AAGTTCTGGTTTTAA (double strand) [zebrafish nd4 nickase-1 reverse half-site]”, the activity (% embryos with deletion) in data set [5] came out at 50.

As for “GACTAAAATGAACCT (double strand) [zebrafish nd4 nickase-2 forward half-site]”, the activity (% embryos with deletion) in data set [6] stood at 50.

On to “TTACACCTAATTCCT (double strand) [zebrafish nd4 nickase-1 forward half-site]”, for which, in data set [7], the activity (% embryos with deletion) came to 50.

“AGGGCTAATGATAGT (double strand) [zebrafish nd5 forward half-site]” yielded an activity (% embryos with deletion) in data set [8] of 30.

As for “TATATTCGAAGCTAC (double strand) [zebrafish nd4 nuclease forward half-site]”, the activity (% embryos with deletion) in [9] is greater than 90.

On to “ACGAGTTAGAAGCAT (double strand) [zebrafish nd4 nickase-2 reverse half-site]”, for which the activity (% embryos with deletion) in data set [10] is 50.

(Values after patent US20190024073.)
